Test results as given in patent publication US20240124556A1, “KERATIN BD-3, PREPARATION METHOD THEREFOR AND PHARMACEUTICAL COMPOSITION AND USE THEREOF” (INSTITUTE OF MATERIA MEDICA, CHINESE ACADEMY OF MEDICAL …, priority 2019, published 2024).

Columns and labels:
[1] = tested on: acetic acid writhing in ICR mice; assay: Acetic acid writhing in ICR mice; format: in vivo; settings: for Writhing incubation period: 0.6% acetic acid i.p., model group 204.2 ± 19.6; for Frequency of writhing: within 15 minutes, model group 33.3 ± 2.5
Description: • Animals: male ICR mice; • Drugs and reagents: aspirin, physiological saline, glacial acetic acid, protein BD-3. • Experiment grouping: • Model group; • Aspirin 300 mg/kg group; • Protein BD-3, 50 mg/kg group, 200 mg/kg group.
One day after the experimental animals adapt to the environment, Aspirin 300 mg/kg, protein BD-3 50 mg/kg, 200 mg/kg were given orally one hour in advance, and the administration volume was 10 ml/kg; Then, 0.6% acetic acid solution was injected intraperitoneally, and the incubation period (seconds) and frequency of writhing in the animal was observed within 15 minutes.
Calculate the mean and standard error of the data in each group. Compared with the model group by TTEST, P<0.05 was considered as statistically different.

[2] = tested on: PLO-induced epilepsy in mice; assay: Pilocarpine (PLO) induced convulsive epilepsy in mice; format: in vivo, ICR mice; settings: for mortality rate / Grade IV seizure rate / Cases of Grade IV / Cases of deaths: PLO 225 mg/kg i.p.; for mortality rate / Cases of deaths: model group 0; for Grade IV seizure rate: model group 80%; for Cases of Grade IV / Cases of deaths: of 10 mice; for Cases of Grade IV: 30 min observation, model group 8; for Grade IV seizure incubation period / Grade II seizure incubation period / Grade III seizure incubation period: mean ± SEM; for Grade IV seizure incubation period: maximum recorded 1800 seconds, model group 894 ± 164; for Grade II seizure incubation period: model group 86 ± 5; for Grade III seizure incubation period: model group 142 ± 6
Description: • Animals: male ICR mice; • Drugs: Pilocarpine HCl (PLO, pilocarpine, pilocarpine hydrochloride), Diazepam (diazepam tablets), protein BD-3. • Experiment grouping: • Model group: • Diazepam 2 mg/kg group; • Protein BD-3, 50 mg/kg group, 200 mg/kg group.
The drug was administered once in the afternoon the day before modeling, PLO-225 mg/kg (modeling agent) was injected intraperitoneally 1 hour after the test drug was administered intragastrically on the day of modeling. And positive drug can be administered once 20 minutes before modeling. Observe for 30 minutes after PLO injection.
Observation indicators: (1)Seizure situation: the time of seizures from Grade II to Grade IV; (2)the time to death.
(§1) Seizure grade: Refer to Racine grading standard: Grade 0: No response; Grade I: manifested as twitching of facial muscles or the corners of the mouth; Grade II: can nod; Grade III: twitching of one limb; Grade IV: rigidity or body twitching; Grade V: generalized epilepsy (generalized tonic seizures).
Count the number of Grade IV seizures and deaths in each group of mice in the experiment; Grade II, III and IV incubation period. […] Chi-square test was used for statistics of the number of cases. The mean value and standard error of the incubation period were calculated, and TTEST was used to compare the model group with other groups. P<0.05 was considered as a significant difference.

[3] = tested on: PTZ-induced epilepsy in mice; assay: Pentylenetetrazole (PTZ)-induced epilepsy in mice; format: in vivo, ICR mice; settings: for mortality rate / Grade IV seizure rate / Cases of Grade IV / Cases of deaths: PTZ 65 mg/kg i.p.; for mortality rate: model group 10%; for Grade IV seizure rate: model group 90%; for Cases of Grade IV / Cases of deaths: of 10 mice; for Cases of Grade IV: 15 min observation, model group 9; for Cases of deaths: model group 1; for Grade IV seizure incubation period / Grade III seizure incubation period: mean ± SEM; for Grade IV seizure incubation period: maximum recorded 900 seconds, model group 185 ± 84; for Grade III seizure incubation period: model group 63 ± 6
Description: • Animals: male ICR mice; • Medicines: Pentylenetetrazol (PTZ), Retigabine, Protein BD-3. • Experiment grouping: • Model group; • Retigabine 60 mg/kg group; • Protein BD-3, 50 mg/kg group, 200 mg/kg group;
The drug was administered once in the afternoon the day before modeling, On the day of modeling, PTZ-65 mg/kg (modeling agent) was injected intraperitoneal 1 hour after the test drug was administered intragastrically, and the positive drug can be administered once half an hour before modeling. Continue to observe for 15 minutes after injection of PTZ.
Observation index: (1)Seizure situation: the time of seizures from Grade III to Grade VI; (2)Death situation
as §1
Count the cases of seizures and deaths in each group of mice in the experiment; Grade III and IV incubation period. The incubation period of mice that have not attacked to Grade IV is recorded as the maximum of 900 seconds. Chi-square test was used for statistics of the number of cases. Calculate the mean and standard error of the incubation period. Use TTEST to compare the model group with other groups, and P<0.05 is considered as a significant difference.

[4] = summary statement, no dose given

B1: BD-3: recombinant keratin, amino acid sequence SEQ ID NO:1, expressed in E. coli, band around 43 kD; tested material prepared in Example 4 (protein, listed as Bos taurus)
chain: MSYSCCLPNLSFRSSCSSRPCVPSSCCGTTLPGACNIPANVGSCNWFCEGSFNGSEKETMQFLNDRLASYLEKVRQLERDNAELESRILERSQQKILANKAENARLVVQIDNAKLAADDFRTKYQTELGLRQLVESDINGLRRILDELTLCKSDLEAQVESLKEELICLKQNHEQEVNTLRSQLGDRLNVEVDAAPTVDLNRVLNETRAQYEALVETNRRDVEEWYIRQTEELNKQVVSSSEQLQSYQAEIIELRRTVNALEVELQAQHNLRDSLENTLTETEARYSCQLAQVQGLIGNVESQLAEIRSDLERQNQEYQVLLDVRARLECEINTYRGLLDSEDCKLPCNPCATTNASSVGSCVTNPCTPCGPRSRFGPCNTFGC
In the case of B1, the Writhing incubation period ([1]; BD-3 50 mg/kg oral) is reported as 221.5 ± 28.4 s, the Frequency of writhing ([1]; BD-3 50 mg/kg oral) is reported as 24.7 ± 3.0 times and the “Times of writhing vs model group (in words)” value ([1]; BD-3 50 mg/kg, P<0.05) is reported as “can significantly reduce the times of writhing in mice”. The Writhing incubation period ([1]; BD-3 200 mg/kg oral) was 189.8 ± 10.4 s, the Frequency of writhing ([1]; BD-3 200 mg/kg oral) was 29.5 ± 4.7 times and the “Summary: analgesic effect, writhing (in words)” value [1, 4] was “can significantly reduce the number of writhing times in mice”. The “Epilepsy Grade IV incubation period vs model group (in words)” value ([2]; BD-3 50 mg/kg) was “statistically different from the model group”, the mortality rate ([2]; BD-3 50 mg/kg intragastric) was 0 and the “Grade IV seizure rate” value ([2]; BD-3 50 mg/kg intragastric) was 30%. For the same molecule, the “Cases of Grade IV” value ([2]; BD-3 50 mg/kg intragastric) was 3, the Cases of deaths ([2]; BD-3 50 mg/kg intragastric) was 0 and the “Grade IV seizure incubation period” value ([2]; BD-3 50 mg/kg) was 1573 ± 138 s. For the same molecule, the “Grade II seizure incubation period” value ([2]; BD-3 50 mg/kg) was 91 ± 6 s, the “Grade III seizure incubation period” value ([2]; BD-3 50 mg/kg) was 155 ± 12 s and the “Epilepsy Grade III incubation period vs model group (in words)” value ([2]; BD-3 200 mg/kg) was “statistically different from the model group”. The mortality rate ([2]; BD-3 200 mg/kg intragastric) was 0, the “Grade IV seizure rate” value ([2]; BD-3 200 mg/kg intragastric) was 60% and the “Cases of Grade IV” value ([2]; BD-3 200 mg/kg intragastric) was 6. The Cases of deaths ([2]; BD-3 200 mg/kg intragastric) was 0, the “Grade IV seizure incubation period” value ([2]; BD-3 200 mg/kg) was 1181 ± 203 s and the “Grade II seizure incubation period” value ([2]; BD-3 200 mg/kg) was 99 ± 5 s. For the same molecule, the “Grade III seizure incubation period” value ([2]; BD-3 200 mg/kg) was 183 ± 12 s, the “Summary: effect on epilepsy incubation period, PLO model (in words)” value [2, 4] was “can significantly prolong the incubation period of class III and class IV epilepsy in mice” and the mortality rate ([3]; BD-3 50 mg/kg intragastric) was 10%. The “Grade IV seizure rate” value ([3]; BD-3 50 mg/kg intragastric) was 100%, the “Cases of Grade IV” value ([3]; BD-3 50 mg/kg intragastric) was 10 and the Cases of deaths ([3]; BD-3 50 mg/kg intragastric) was 1. The “Grade IV seizure incubation period” value ([3]; BD-3 50 mg/kg) was 162 ± 58 s, the “Grade III seizure incubation period” value ([3]; BD-3 50 mg/kg) was 75 ± 6 s and the “Epilepsy Grade III incubation period vs model group (in words)” value ([3]; BD-3 200 mg/kg) was “has a tendency to extend the incubation period, but there is no statistical difference compared with the model group”. For the same molecule, the mortality rate ([3]; BD-3 200 mg/kg intragastric) was 0%, the “Grade IV seizure rate” value ([3]; BD-3 200 mg/kg intragastric) was 70% and the “Cases of Grade IV” value ([3]; BD-3 200 mg/kg intragastric) was 7. The Cases of deaths ([3]; BD-3 200 mg/kg intragastric) was 0, the “Grade IV seizure incubation period” value ([3]; BD-3 200 mg/kg) was 327 ± 125 s and the “Grade III seizure incubation period” value ([3]; BD-3 200 mg/kg) was 62 ± 5 s.
